Reference: the Human Domainome abundance scans (Beltran et al. 2025)
± gives the uncertainty stated by the source.

B1: Transcription factor SOX-4, residues 60 to 127; numbered along this chain, Q06945 (parent)
chain: KRPMNAFMVWSQIERRKIMEQSPDMHNAEISKRLGKRWKLLKDSDKIPFIREAERLRLKHMADYPDYK

Variants of: B1
Assay: abundance fitness (aPCA) (normalised: wild type 0, dead -1); higher = more abundant; growth selection in yeast, the domain comes from the species named
Conditions: Homo sapiens

E52L and E52C are within error of each other in abundance fitness: -0.3 ± 0.062 for the first, -0.353 ± 0.11 for the second.

Going from E52R to G35V, the abundance fitness rises from -0.322 ± 0.1 to 0.134 ± 0.037.

G35S and G35A are within error of each other in abundance fitness: 0.173 ± 0.035 for the first, 0.171 ± 0.048 for the second.

First: G35C
Second: G35P
The abundance fitness of the first is higher: 0.095 ± 0.045 for the first, -0.496 ± 0.13 for the second.

G35I and G35R are within error of each other in abundance fitness: 0.156 ± 0.042 for the first, 0.19 ± 0.037 for the second.

G35W and G35Y are within error of each other in abundance fitness: 0.142 ± 0.058 for the first, 0.119 ± 0.05 for the second.

Compared with G35D, G35E is higher in abundance fitness: 0.116 ± 0.05 for the first, 0.262 ± 0.057 for the second.

Compared with G35N, G35H is higher in abundance fitness: 0.015 ± 0.056 for the first, 0.178 ± 0.051 for the second.

G35Q and G35K are within error of each other in abundance fitness: 0.302 ± 0.2 for the first, 0.262 ± 0.083 for the second.

G35L and G35T are within error of each other in abundance fitness: 0.168 ± 0.041 for the first, 0.15 ± 0.049 for the second.

Going from R57D to R57C, the abundance fitness rises from -0.372 ± 0.11 to -0.048 ± 0.13.

Going from R57A to R57E, the abundance fitness falls from 0.06 ± 0.062 to -0.111 ± 0.066.

L40R and L40Q are within error of each other in abundance fitness: -0.08 ± 0.041 for the first, 0.011 ± 0.071 for the second.

Compared with L40G, L40D is higher in abundance fitness: -0.08 ± 0.041 for the first, 0.094 ± 0.058 for the second.

L40F and L40V are within error of each other in abundance fitness: -0.34 ± 0.069 for the first, -0.329 ± 0.046 for the second.

Going from L40H to L40P, the abundance fitness falls from -0.153 ± 0.14 to -1.29 ± 0.41.

First: L40S
Second: L40I
The abundance fitness of the first is higher: 0.039 ± 0.042 for the first, -0.468 ± 0.064 for the second.

Compared with L40Y, L40T is higher in abundance fitness: -0.331 ± 0.08 for the first, 0.019 ± 0.065 for the second.

Going from L40C to A53W, the abundance fitness falls from -0.046 ± 0.043 to -1.19 ± 0.19.

A53P and A53F are within error of each other in abundance fitness: -1.19 ± 0.3 for the first, -0.841 ± 0.27 for the second.

A53C and A53M are within error of each other in abundance fitness: -0.824 ± 0.27 for the first, -0.585 ± 0.088 for the second.

A53R and A53L are within error of each other in abundance fitness: -0.924 ± 0.087 for the first, -0.856 ± 0.17 for the second.

First: A53E
Second: A53V
The abundance fitness of the first is higher: -0.52 ± 0.084 for the first, -0.787 ± 0.12 for the second.

Going from A53Q to A53H, the abundance fitness rises from -0.898 ± 0.17 to -0.42 ± 0.17.

A53Y and A53N are within error of each other in abundance fitness: -0.347 ± 0.12 for the first, -0.275 ± 0.24 for the second.

A53G and A53I are within error of each other in abundance fitness: -0.684 ± 0.08 for the first, -0.662 ± 0.23 for the second.

First: A53S
Second: L34W
The abundance fitness of the first is higher: -0.431 ± 0.055 for the first, -0.713 ± 0.11 for the second.

First: K46D
Second: K46Y
The abundance fitness of the first is higher: -0.524 ± 0.072 for the first, -1 ± 0.13 for the second.

Going from K46R to K46F, the abundance fitness falls from -0.237 ± 0.04 to -0.995 ± 0.11.

K46W and K46A are within error of each other in abundance fitness: -0.95 ± 0.11 for the first, -0.937 ± 0.13 for the second.

K46Q and K46I are within error of each other in abundance fitness: -0.701 ± 0.14 for the first, -0.553 ± 0.072 for the second.

First: K46L
Second: K46V
The abundance fitness of the first is higher: -0.652 ± 0.063 for the first, -0.798 ± 0.061 for the second.

K46M and K46C are within error of each other in abundance fitness: -0.841 ± 0.074 for the first, -0.814 ± 0.087 for the second.

K46P and K46S are within error of each other in abundance fitness: -0.933 ± 0.2 for the first, -0.901 ± 0.066 for the second.

K46N and K46H are within error of each other in abundance fitness: -1.08 ± 0.11 for the first, -1.09 ± 0.14 for the second.

Compared with K46T, L41A is lower in abundance fitness: -0.694 ± 0.06 for the first, -0.875 ± 0.12 for the second.

L41K and L41Y are within error of each other in abundance fitness: -0.653 ± 0.11 for the first, -0.807 ± 0.17 for the second.

Going from L41M to L41E, the abundance fitness falls from 0.071 ± 0.065 to -0.849 ± 0.16.

L41G and L41F are within error of each other in abundance fitness: -0.941 ± 0.16 for the first, -0.684 ± 0.2 for the second.

L41P and L41V are within error of each other in abundance fitness: -0.728 ± 0.21 for the first, -0.529 ± 0.067 for the second.

L41S and L41T are within error of each other in abundance fitness: -0.779 ± 0.1 for the first, -0.788 ± 0.12 for the second.

L41Q and L41W are within error of each other in abundance fitness: -0.889 ± 0.19 for the first, -0.946 ± 0.14 for the second.

Going from E54L to E54P, the abundance fitness falls from -0.501 ± 0.045 to -0.802 ± 0.11.

E54R and E54G are within error of each other in abundance fitness: -0.469 ± 0.051 for the first, -0.514 ± 0.044 for the second.

Compared with E54C, E54W is lower in abundance fitness: -0.425 ± 0.049 for the first, -0.643 ± 0.09 for the second.

E54Y and E54F are within error of each other in abundance fitness: -0.652 ± 0.058 for the first, -0.574 ± 0.056 for the second.

First: E54H
Second: E54Q
The abundance fitness of the first is lower: -0.435 ± 0.045 for the first, -0.071 ± 0.062 for the second.

Compared with E54N, E54V is lower in abundance fitness: -0.158 ± 0.041 for the first, -0.696 ± 0.055 for the second.

Going from E54I to E54K, the abundance fitness rises from -0.701 ± 0.067 to -0.369 ± 0.06.

E54A and E54D are within error of each other in abundance fitness: -0.29 ± 0.062 for the first, -0.264 ± 0.046 for the second.

W38D and W38E are within error of each other in abundance fitness: -0.67 ± 0.091 for the first, -0.799 ± 0.1 for the second.

W38C and W38G are within error of each other in abundance fitness: -0.849 ± 0.076 for the first, -0.744 ± 0.05 for the second.

W38F and W38N are within error of each other in abundance fitness: -1.08 ± 0.16 for the first, -0.874 ± 0.094 for the second.

W38R and W38A are within error of each other in abundance fitness: -1.16 ± 0.12 for the first, -1.01 ± 0.1 for the second.

Going from W38T to W38V, the abundance fitness falls from -0.632 ± 0.11 to -0.887 ± 0.12.

W38K and W38Q are within error of each other in abundance fitness: -0.708 ± 0.09 for the first, -1.02 ± 0.24 for the second.

W38M and W38L are within error of each other in abundance fitness: -0.985 ± 0.11 for the first, -0.989 ± 0.096 for the second.

W38H and W38P are within error of each other in abundance fitness: -0.548 ± 0.14 for the first, -0.739 ± 0.13 for the second.

W38Y and D45Y are within error of each other in abundance fitness: -0.548 ± 0.089 for the first, -0.361 ± 0.21 for the second.

Compared with D45V, D45R is lower in abundance fitness: -0.414 ± 0.082 for the first, -0.74 ± 0.094 for the second.

D45F and D45S are within error of each other in abundance fitness: -0.39 ± 0.48 for the first, -0.431 ± 0.089 for the second.

D45M and D45W are within error of each other in abundance fitness: -0.395 ± 0.14 for the first, -0.344 ± 0.12 for the second.

Going from D45Q to D45L, the abundance fitness falls from -0.097 ± 0.16 to -0.378 ± 0.09.

D45A and D45H are within error of each other in abundance fitness: -0.239 ± 0.071 for the first, -0.429 ± 0.32 for the second.

D45K and D45C are within error of each other in abundance fitness: -0.486 ± 0.33 for the first, -0.758 ± 0.25 for the second.

First: D45G
Second: D45E
The abundance fitness of the first is lower: -0.495 ± 0.1 for the first, -0.074 ± 0.089 for the second.

Going from D45T to R55K, the abundance fitness rises from -0.576 ± 0.11 to -0.08 ± 0.072.

First: R55N
Second: R55G
The abundance fitness of the first is higher: -0.22 ± 0.07 for the first, -0.337 ± 0.035 for the second.

R55E and R55F are within error of each other in abundance fitness: -0.333 ± 0.076 for the first, -0.38 ± 0.059 for the second.

R55M and R55S are within error of each other in abundance fitness: -0.2 ± 0.091 for the first, -0.309 ± 0.045 for the second.

Going from R55A to R55I, the abundance fitness falls from -0.103 ± 0.053 to -0.22 ± 0.06.

R55V and R55L are within error of each other in abundance fitness: -0.248 ± 0.039 for the first, -0.326 ± 0.046 for the second.

Compared with R55T, R55P is lower in abundance fitness: -0.181 ± 0.067 for the first, -0.5 ± 0.09 for the second.

First: R55D
Second: R55W
The abundance fitness of the first is higher: -0.136 ± 0.07 for the first, -0.44 ± 0.047 for the second.

R55H and R55C are within error of each other in abundance fitness: -0.284 ± 0.073 for the first, -0.292 ± 0.056 for the second.

Compared with R55Y, R55Q is higher in abundance fitness: -0.474 ± 0.1 for the first, -0.188 ± 0.08 for the second.

Going from S44E to S44Q, the abundance fitness falls from 0.119 ± 0.1 to -0.073 ± 0.073.

S44M and S44F are within error of each other in abundance fitness: -0.243 ± 0.1 for the first, -0.442 ± 0.13 for the second.

First: S44A
Second: S44P
The abundance fitness of the first is higher: 0.035 ± 0.053 for the first, -0.465 ± 0.13 for the second.

S44N and S44R are within error of each other in abundance fitness: -0.23 ± 0.18 for the first, -0.264 ± 0.066 for the second.

Compared with S44T, S44W is lower in abundance fitness: -0.134 ± 0.12 for the first, -0.41 ± 0.099 for the second.

S44Y and S44C are within error of each other in abundance fitness: -0.687 ± 0.19 for the first, -0.472 ± 0.13 for the second.

S44V and S44D are within error of each other in abundance fitness: -0.164 ± 0.066 for the first, -0.217 ± 0.14 for the second.

With S44H the abundance fitness was -0.205 ± 0.1.
